# According to the Immune Epitope Database (IEDB):
# pKd: −log10 of the molar value.
# Assays:
# [1] = molecular target: HLA-B*15:42; experiment: IEDB peptide-MHC binding, purified MHC/competitive/fluorescence; filed as Kd, often an IC50 or EC50 that approximates it; ≥ and ≤ were set here for values at or beyond the usual limits of such assays; details: source organism: Entamoeba histolytica HM-1:IMSS
# [2] = molecular target: HLA-A*02:50; experiment: as above; details: source organism: Entamoeba histolytica HM-1:IMSS
# [3] = molecular target: HLA-C*06:02; experiment: as above; details: source organism: Entamoeba histolytica HM-1:IMSS
# [4] = molecular target: HLA-B*83:01; experiment: as above; details: source organism: Entamoeba histolytica HM-1:IMSS
# [5] = molecular target: HLA-B*45:06; experiment: as above; details: source organism: Entamoeba histolytica HM-1:IMSS
# [6] = molecular target: HLA-A*03:19; experiment: as above; details: source organism: Entamoeba histolytica HM-1:IMSS
# [7] = molecular target: HLA-B*18:01; experiment: IEDB peptide-MHC binding, purified MHC/direct/fluorescence; filed as Kd, often an IC50 or EC50 that approximates it; ≥ and ≤ were set here for values at or beyond the usual limits of such assays; details: source organism: Entamoeba histolytica
# [8] = molecular target: HLA-A*02:19; experiment: as above; details: source organism: Entamoeba histolytica HM-1:IMSS
# [9] = molecular target: HLA-B*58:01; experiment: as above; details: source organism: Entamoeba histolytica
# [10] = molecular target: HLA-A*02:01; experiment: as above; details: source organism: Entamoeba histolytica
# [11] = molecular target: HLA-A*02:06; experiment: as above; details: source organism: Entamoeba histolytica HM-1:IMSS
# [12] = molecular target: HLA-B*15:01; experiment: as above; details: source organism: Entamoeba histolytica
# [13] = molecular target: HLA-A*02:03; experiment: as above; details: source organism: Entamoeba histolytica HM-1:IMSS
# [14] = molecular target: HLA-B*44:02; experiment: as above; details: source organism: Entamoeba histolytica
# [15] = molecular target: HLA-C*15:02; experiment: as above; details: source organism: Entamoeba histolytica HM-1:IMSS
# [16] = molecular target: HLA-B*07:02; experiment: as above; details: source organism: Entamoeba histolytica
# [17] = molecular target: HLA-A*02:11; experiment: as above; details: source organism: Entamoeba histolytica HM-1:IMSS
# [18] = molecular target: HLA-B*40:01; experiment: as above; details: source organism: Entamoeba histolytica
# [19] = molecular target: HLA-A*24:02; experiment: as above; details: source organism: Entamoeba histolytica
# [20] = molecular target: HLA-A*03:01; experiment: as above; details: source organism: Entamoeba histolytica
# [21] = molecular target: HLA-B*27:05; experiment: as above; details: source organism: Entamoeba histolytica
# [22] = molecular target: HLA-C*08:02; experiment: as above; details: source organism: Entamoeba histolytica HM-1:IMSS
# [23] = molecular target: HLA-A*02:12; experiment: as above; details: source organism: Entamoeba histolytica HM-1:IMSS
# [24] = molecular target: HLA-A*01:01; experiment: as above; details: source organism: Entamoeba histolytica
# [25] = molecular target: HLA-A*69:01; experiment: as above; details: source organism: Entamoeba histolytica
# [26] = molecular target: HLA-B*18:01; experiment: IEDB peptide-MHC binding, purified MHC/competitive/fluorescence; filed as Kd, often an IC50 or EC50 that approximates it; ≥ and ≤ were set here for values at or beyond the usual limits of such assays; details: source organism: Vibrio antiquarius
# [27] = molecular target: HLA-A*02:19; experiment: as above; details: source organism: Vibrio antiquarius
# [28] = molecular target: HLA-A*02:01; experiment: as above; details: source organism: Vibrio antiquarius
# [29] = molecular target: HLA-B*46:01; experiment: as above; details: source organism: Vibrio antiquarius
# [30] = molecular target: HLA-B*51:01; experiment: as above; details: source organism: Vibrio antiquarius
# [31] = molecular target: HLA-A*26:01; experiment: as above; details: source organism: Vibrio antiquarius
# [32] = molecular target: HLA-B*57:01; experiment: as above; details: source organism: Vibrio antiquarius
# [33] = molecular target: HLA-A*24:03; experiment: as above; details: source organism: Vibrio antiquarius
# [34] = molecular target: HLA-B*15:01; experiment: as above; details: source organism: Vibrio antiquarius
# [35] = molecular target: HLA-A*02:03; experiment: as above; details: source organism: Vibrio antiquarius
# [36] = molecular target: HLA-B*39:01; experiment: as above; details: source organism: Vibrio antiquarius
# [37] = molecular target: HLA-A*25:01; experiment: as above; details: source organism: Vibrio antiquarius
# [38] = molecular target: HLA-B*15:17; experiment: as above; details: source organism: Vibrio antiquarius
# [39] = molecular target: HLA-A*02:11; experiment: as above; details: source organism: Vibrio antiquarius
# [40] = molecular target: HLA-A*80:01; experiment: as above; details: source organism: Vibrio antiquarius
# [41] = molecular target: HLA-A*68:02; experiment: as above; details: source organism: Vibrio antiquarius
# [42] = molecular target: HLA-A*29:02; experiment: as above; details: source organism: Vibrio antiquarius
# [43] = molecular target: HLA-A*03:01; experiment: as above; details: source organism: Vibrio antiquarius
# [44] = molecular target: HLA-A*23:01; experiment: as above; details: source organism: Vibrio antiquarius
# [45] = molecular target: HLA-A*02:12; experiment: as above; details: source organism: Vibrio antiquarius
# [46] = molecular target: HLA-A*69:01; experiment: as above; details: source organism: Vibrio antiquarius
# [47] = molecular target: HLA-B*27:03; experiment: as above; details: source organism: Vibrio antiquarius
sequence,measurement,setting,value
KLMPGSIYV,pKd,[1],≤ 5.30
same,pKd,[2],≥ 10.00
same,pKd,[3],5.93
same,pKd,[4],≤ 5.30
same,pKd,[5],≤ 5.30
same,pKd,[6],6.96
same,pKd,[7],≤ 4.70
same,pKd,[8],≥ 9.00
same,pKd,[9],≤ 4.70
same,pKd,[10],8.21
same,pKd,[11],8.70
same,pKd,[12],6.90
same,pKd,[13],≥ 9.00
same,pKd,[14],≤ 4.70
same,pKd,[15],7.15
same,pKd,[16],≤ 4.70
same,pKd,[17],≥ 9.00
same,pKd,[18],≤ 4.70
same,pKd,[19],≤ 4.70
same,pKd,[20],6.86
same,pKd,[21],≤ 4.70
same,pKd,[22],≤ 4.70
same,pKd,[23],8.70
same,pKd,[24],≤ 4.70
same,pKd,[25],6.43
SLTIPSFYT,pKd,[26],≤ 4.70
same,pKd,[27],≤ 4.70
same,pKd,[28],≤ 4.70
same,pKd,[29],≤ 4.70
same,pKd,[30],≤ 4.70
same,pKd,[31],≤ 4.70
same,pKd,[32],≤ 4.70
same,pKd,[33],≤ 4.70
same,pKd,[34],≤ 4.70
same,pKd,[35],≤ 4.70
same,pKd,[36],≤ 4.70
same,pKd,[37],≤ 4.70
same,pKd,[38],≤ 4.70
same,pKd,[39],8.01
same,pKd,[40],≤ 4.70
same,pKd,[41],≤ 4.70
same,pKd,[42],≤ 4.70
same,pKd,[43],≤ 4.70
same,pKd,[44],≤ 4.70
same,pKd,[45],≤ 4.70
same,pKd,[46],≤ 4.70
same,pKd,[47],≤ 4.70
